# Results taken from FireProtDB (doi:10.1111/j.1432-1033.1992.tb16932.x).
# Details: Escherichia coli (strain K12), CD, reversible: yes, whole UniProt chain shown
# [1] = pH 3, Thermal, glycine-HCl 10 mM
# [2] = pH 5.5, 25 °C, Urea, Sodium acetate 10 mM, NaCl 0.1 M
protein,measurement,setting,value
"Ribonuclease HI wild type, P0A7Y4 (protein) MLKQVEIFTDGSCLGNPGPGGYGAILRYRGREKTFSAGYTRTTNNRMELMAAIVALEALKEHCEVILSTDSQYVRQGITQWIHNWKKRGWKTADKKPVKNVDLWQRLDAALGQHQIKWEWVKGHAGHPENERCDELARAAAMNPTLEDTGYQVEV",Tm,[1],49.8 °C
same,unfolding enthalpy (van 't Hoff),[1],98.1 kcal/mol
same,denaturant m value,[2],1.96 kcal/mol/M
same,denaturant midpoint (higher = more stable),[2],5.01 M
same,unfolding free energy,[2],9.81 kcal/mol
